The record followed here is article doi:10.1101/2020.12.22.423932.

The test deals with human RPN2, wild type, full length (human) (UniProt Q99460). Put plainly: MST.

The Kd is the free concentration of one partner at which half of the binding sites on the other are occupied at equilibrium, for simple one-to-one binding. Low values mean tighter binding, high ones weaker binding.

Sequence of human RPN2, wild type, full length (human) (Q99460 whole entry): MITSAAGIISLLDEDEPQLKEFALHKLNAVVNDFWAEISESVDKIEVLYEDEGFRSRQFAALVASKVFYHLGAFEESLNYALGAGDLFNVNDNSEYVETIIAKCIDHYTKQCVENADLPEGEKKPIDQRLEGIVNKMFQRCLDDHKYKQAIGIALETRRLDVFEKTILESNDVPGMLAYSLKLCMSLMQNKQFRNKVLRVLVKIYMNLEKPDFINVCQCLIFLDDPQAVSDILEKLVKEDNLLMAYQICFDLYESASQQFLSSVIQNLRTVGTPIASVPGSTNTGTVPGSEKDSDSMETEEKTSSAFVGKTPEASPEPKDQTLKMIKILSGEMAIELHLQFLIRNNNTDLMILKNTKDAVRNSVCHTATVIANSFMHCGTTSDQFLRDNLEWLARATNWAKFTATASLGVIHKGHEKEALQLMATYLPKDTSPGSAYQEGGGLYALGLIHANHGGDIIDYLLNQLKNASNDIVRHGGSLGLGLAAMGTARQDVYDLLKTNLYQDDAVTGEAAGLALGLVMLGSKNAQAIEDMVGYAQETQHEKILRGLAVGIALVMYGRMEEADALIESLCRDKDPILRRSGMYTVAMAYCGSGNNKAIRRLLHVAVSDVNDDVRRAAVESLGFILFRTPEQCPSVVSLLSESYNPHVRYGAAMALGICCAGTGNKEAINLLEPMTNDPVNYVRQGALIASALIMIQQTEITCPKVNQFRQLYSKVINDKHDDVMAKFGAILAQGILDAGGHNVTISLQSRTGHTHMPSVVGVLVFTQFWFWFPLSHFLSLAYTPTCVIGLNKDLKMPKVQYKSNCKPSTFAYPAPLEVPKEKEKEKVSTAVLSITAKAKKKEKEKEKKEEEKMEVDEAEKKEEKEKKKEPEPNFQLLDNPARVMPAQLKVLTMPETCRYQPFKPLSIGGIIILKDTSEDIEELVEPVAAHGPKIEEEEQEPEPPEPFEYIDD

Regarding “mono-ubiquitin (from UniProt P0CG48 1-76) (natural protein; other documents disagree on this pair)”, the Kd was determined as 2120 µM.
